Results taken from the supplement of paper PMC10126150.
± gives the standard deviation of the averaged measurements.

The sequences below were run on ATP (assay: switch fluorescence ratio, 500 uM ATP over buffer (Cy3 cluster intensity, sum of 5 cycles each) (fold (ratio)); higher = stronger signal-on switching upon ATP binding; sequences stand for … in TCGTCGGCAGCGTCAGATGTGTATAAGAGACAGTTTTTTTTTTTTTTTTTTTTTTTTT…TC). Details: aptamer strand: ATP DNA aptamer (quencher-CACCTGGGGGAGTATTGCGGAGGAAGG + anchor), 100 nM annealed; ATP concentration: 500 uM.
Summary of the method: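 Five buffer/ATP imaging cycles were run on Cy3-labelled switching-strand clusters on a modified Illumina MiSeq flow-cell, with NaOH stripping and re-annealing between cycles. In each cycle, clusters annealed to 100 nM quencher-labelled ATP aptamer were imaged in selection buffer, then after 15 min with 500 uM ATP at 22 °C. Per cluster, the fluorescence ratio is summed target-cycle over summed buffer-cycle Cy3 intensity, averaged per switch-domain sequence. Only clusters within 100-1000 RFU were kept.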
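Also: ATP exposure 15 min at 22 °C before imaging.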

Row | Sequence | switch fluorescence ratio
1 | GTGTTTTCGG | 0.985 ± 0.016
2 | AATTATTGTT | 0.996 ± 0.017
3 | GCTTACTGCT | 0.947 ± 0.029
4 | CGTGTAATGT | 0.985 ± 0.048
5 | TAAGGTTCTC | 0.96 ± 0.015
6 | AGCGAGTTGG | 0.958 ± 0.039
7 | GCATTCGGAT | 1.01 ± 0.014
8 | AGAGACTGAG | 1.045 ± 0.0026
9 | CGGGGGCGGT | 0.998 ± 0.03
10 | AAATGGCACG | 0.973 ± 0.024
11 | TCGGGTGGGG | 1.01 ± 0.014
12 | TATTTGAAA | 1.05 ± 0.059
13 | AAGGCACAAG | 1 ± 0.021
14 | CGTTGTACTT | 1.01 ± 0.052
15 | AAGTGTCCCG | 0.994 ± 0.032
16 | ATAGTGGCGC | 0.997 ± 0.016
17 | TATTGTTGTT | 0.9949 ± 0.0063
18 | TTGGCGTTGG | 0.987 ± 0.026
19 | GAGCGTCACG | 1.006 ± 0.0055
20 | ATGATGCTTG | 0.993 ± 0.045
21 | TGAGTGAGTG | 0.9933 ± 0.0015
22 | TTGTTGCTTA | 1.05 ± 0.006
23 | ATTGAGGCAA | 1.22 ± 0.066
24 | CATAATCAGG | 1.04 ± 0.03
25 | GTTTGTCTTT | 1.02 ± 0.012

Row | Sequence | switch fluorescence ratio
26 | GCTGGGACGT | 1 ± 0.025
27 | GTTGCGTCTA | 1.04 ± 0.033
28 | TTTATTATGT | 0.994 ± 0.034
29 | ACTTTGAATG | 1.02 ± 0.027
30 | CATACGGTTT | 1.05 ± 0.024
31 | CATAATCTAG | 1.03 ± 0.013
32 | CTTTTAGTTA | 1.01 ± 0.015
33 | TTGCAGTTGT | 0.993 ± 0.041
34 | CATTAAGGGC | 0.962 ± 0.04
35 | TCAATGCATG | 0.983 ± 0.035
36 | AGGGGTAAAT | 1.02 ± 0.073
37 | CGCATAGGAC | 3.16 ± 0.28
38 | GGGAGGGTCT | 0.975 ± 0.016
39 | CGGTAGGACA | 1 ± 0.011
40 | GAATTGGCCT | 1.02 ± 0.019
41 | AGAGGTAGGG | 0.984 ± 0.035
42 | GGCTCCGGTT | 1.19 ± 0.084
43 | TAGAGAGGGT | 0.995 ± 0.035
44 | TGCGCTTGTC | 0.974 ± 0.082
45 | GGAGTTGATT | 0.9808 ± 0.0015
46 | TTTTGGCGGT | 0.971 ± 0.055
47 | TTGTGGAGAG | 1.09 ± 0.12
48 | GTCGTGCCTG | 1.04 ± 0.15
49 | TTCTAGTTGA | 0.991 ± 0.022
50 | GGATTGATTT | 0.993 ± 0.038

Row | Sequence | switch fluorescence ratio
51 | GTTCCGCCGA | 1.23 ± 0.026
52 | TGTGGCAGGT | 0.982 ± 0.031
53 | ATGAATCTTG | 1.02 ± 0.032
54 | CCCGGGATAT | 1.06 ± 0.056
55 | AACAGGGTCT | 0.991 ± 0.038
56 | GGCCACGCTC | 1.04 ± 0.043
57 | AGGAGATACC | 1.03 ± 0.049
58 | TCAGTTAATT | 1.008 ± 0.0099
59 | AGATGCCGAC | 1.02 ± 0.054
60 | CGTCTTTTGG | 1.02 ± 0.025
61 | CAAACTTTGG | 1.006 ± 0.0077
62 | AGATATAGCG | 1.029 ± 0.0076
63 | GTGGGCCAGC | 0.964 ± 0.082
64 | TGGGCTTCGT | 0.994 ± 0.038
65 | TTTAAAACGG | 1.01 ± 0.06
66 | CAGCCTATGG | 0.991 ± 0.05
67 | TGTGGTGGTG | 0.978 ± 0.049
68 | GTTGCGTCGA | 0.997 ± 0.016
69 | GTACTATTAT | 1.038 ± 0.0052
70 | CAGATTTTGA | 0.9804 ± 0.0045
71 | AGACTGTTAG | 0.976 ± 0.029
72 | ATTCATAGGC | 1 ± 0.052
73 | GCTCGGTTAG | 1.01 ± 0.018
74 | AACCAGTGCG | 1.08 ± 0.032
75 | GGCCCGGGGT | 1.44 ± 0.37

Row | Sequence | switch fluorescence ratio
76 | TGCTGCTACC | 1.07 ± 0.037
77 | CATACAGATC | 1.06 ± 0.031
78 | TGACATAGGA | 1.001 ± 0.0029
79 | GTGTTTTGGC | 1.02 ± 0.029
80 | CACTGGTGGC | 1.06 ± 0.022
81 | GATTAAAAGG | 1.017 ± 0.0067
82 | GGGTTTGTTG | 0.988 ± 0.026
83 | AACTGATTTC | 0.963 ± 0.03
84 | GTGTGTGGGA | 1 ± 0.026
85 | GCGTTTGAGG | 0.981 ± 0.017
86 | TCTTGTACGT | 1.01 ± 0.03
87 | GCGAGGGGGT | 0.979 ± 0.054
88 | ACAGGGTGCA | 1.03 ± 0.052
89 | ATGTTCGGCG | 1.01 ± 0.036
90 | TGGGAACTTG | 0.991 ± 0.028
91 | CGGGAGGGGC | 1.02 ± 0.058
92 | TTTATGAAAG | 0.97 ± 0.05
93 | ACCTCGGACC | 1.09 ± 0.022
94 | GGAGAATATG | 1.038 ± 0.0095
95 | GGGGGTTTTC | 1.01 ± 0.04
96 | GATACGATGG | 0.983 ± 0.027
97 | TAAATCAGAG | 0.99 ± 0.03
98 | ATAGCTGGAA | 0.9678 ± 0.0011
99 | GGAACACTGT | 0.9955 ± 0.0077
100 | CTGACTCGGT | 1.12 ± 0.013
